Reference: paper PMC8131915 (The Journal of Biological Chemistry, 2021)
Blank lines part the entries; values can stand above or below the binder they belong to.

What was measured:
[1] = molecular target: transcription-associated protein 1 (Tra1) (S. cerevisiae (endogenous), UniProt P38811 1-3744); experiment: cross-linking
[2] = molecular target: SAGA complex (Spt7-TAP purified) (Saccharomyces cerevisiae, UniProt P35177;P38915;P38811;P50875;P06844;Q12060;P38129;P53040;Q05027;Q12030;Q03761;Q03 …); experiment: fluorescence polarization
[3] = molecular target: SAGA complex (Spt7-TAP purified);TBP (Saccharomyces cerevisiae;Saccharomyces …, UniProt P35177;P38915;P38811;P50875;P06844;Q12060;P38129;P53040;Q05027;Q12030;Q03761;Q03 …, |); experiment: EMSA

Chain of transcription-associated protein 1 (Tra1) (P38811 whole entry): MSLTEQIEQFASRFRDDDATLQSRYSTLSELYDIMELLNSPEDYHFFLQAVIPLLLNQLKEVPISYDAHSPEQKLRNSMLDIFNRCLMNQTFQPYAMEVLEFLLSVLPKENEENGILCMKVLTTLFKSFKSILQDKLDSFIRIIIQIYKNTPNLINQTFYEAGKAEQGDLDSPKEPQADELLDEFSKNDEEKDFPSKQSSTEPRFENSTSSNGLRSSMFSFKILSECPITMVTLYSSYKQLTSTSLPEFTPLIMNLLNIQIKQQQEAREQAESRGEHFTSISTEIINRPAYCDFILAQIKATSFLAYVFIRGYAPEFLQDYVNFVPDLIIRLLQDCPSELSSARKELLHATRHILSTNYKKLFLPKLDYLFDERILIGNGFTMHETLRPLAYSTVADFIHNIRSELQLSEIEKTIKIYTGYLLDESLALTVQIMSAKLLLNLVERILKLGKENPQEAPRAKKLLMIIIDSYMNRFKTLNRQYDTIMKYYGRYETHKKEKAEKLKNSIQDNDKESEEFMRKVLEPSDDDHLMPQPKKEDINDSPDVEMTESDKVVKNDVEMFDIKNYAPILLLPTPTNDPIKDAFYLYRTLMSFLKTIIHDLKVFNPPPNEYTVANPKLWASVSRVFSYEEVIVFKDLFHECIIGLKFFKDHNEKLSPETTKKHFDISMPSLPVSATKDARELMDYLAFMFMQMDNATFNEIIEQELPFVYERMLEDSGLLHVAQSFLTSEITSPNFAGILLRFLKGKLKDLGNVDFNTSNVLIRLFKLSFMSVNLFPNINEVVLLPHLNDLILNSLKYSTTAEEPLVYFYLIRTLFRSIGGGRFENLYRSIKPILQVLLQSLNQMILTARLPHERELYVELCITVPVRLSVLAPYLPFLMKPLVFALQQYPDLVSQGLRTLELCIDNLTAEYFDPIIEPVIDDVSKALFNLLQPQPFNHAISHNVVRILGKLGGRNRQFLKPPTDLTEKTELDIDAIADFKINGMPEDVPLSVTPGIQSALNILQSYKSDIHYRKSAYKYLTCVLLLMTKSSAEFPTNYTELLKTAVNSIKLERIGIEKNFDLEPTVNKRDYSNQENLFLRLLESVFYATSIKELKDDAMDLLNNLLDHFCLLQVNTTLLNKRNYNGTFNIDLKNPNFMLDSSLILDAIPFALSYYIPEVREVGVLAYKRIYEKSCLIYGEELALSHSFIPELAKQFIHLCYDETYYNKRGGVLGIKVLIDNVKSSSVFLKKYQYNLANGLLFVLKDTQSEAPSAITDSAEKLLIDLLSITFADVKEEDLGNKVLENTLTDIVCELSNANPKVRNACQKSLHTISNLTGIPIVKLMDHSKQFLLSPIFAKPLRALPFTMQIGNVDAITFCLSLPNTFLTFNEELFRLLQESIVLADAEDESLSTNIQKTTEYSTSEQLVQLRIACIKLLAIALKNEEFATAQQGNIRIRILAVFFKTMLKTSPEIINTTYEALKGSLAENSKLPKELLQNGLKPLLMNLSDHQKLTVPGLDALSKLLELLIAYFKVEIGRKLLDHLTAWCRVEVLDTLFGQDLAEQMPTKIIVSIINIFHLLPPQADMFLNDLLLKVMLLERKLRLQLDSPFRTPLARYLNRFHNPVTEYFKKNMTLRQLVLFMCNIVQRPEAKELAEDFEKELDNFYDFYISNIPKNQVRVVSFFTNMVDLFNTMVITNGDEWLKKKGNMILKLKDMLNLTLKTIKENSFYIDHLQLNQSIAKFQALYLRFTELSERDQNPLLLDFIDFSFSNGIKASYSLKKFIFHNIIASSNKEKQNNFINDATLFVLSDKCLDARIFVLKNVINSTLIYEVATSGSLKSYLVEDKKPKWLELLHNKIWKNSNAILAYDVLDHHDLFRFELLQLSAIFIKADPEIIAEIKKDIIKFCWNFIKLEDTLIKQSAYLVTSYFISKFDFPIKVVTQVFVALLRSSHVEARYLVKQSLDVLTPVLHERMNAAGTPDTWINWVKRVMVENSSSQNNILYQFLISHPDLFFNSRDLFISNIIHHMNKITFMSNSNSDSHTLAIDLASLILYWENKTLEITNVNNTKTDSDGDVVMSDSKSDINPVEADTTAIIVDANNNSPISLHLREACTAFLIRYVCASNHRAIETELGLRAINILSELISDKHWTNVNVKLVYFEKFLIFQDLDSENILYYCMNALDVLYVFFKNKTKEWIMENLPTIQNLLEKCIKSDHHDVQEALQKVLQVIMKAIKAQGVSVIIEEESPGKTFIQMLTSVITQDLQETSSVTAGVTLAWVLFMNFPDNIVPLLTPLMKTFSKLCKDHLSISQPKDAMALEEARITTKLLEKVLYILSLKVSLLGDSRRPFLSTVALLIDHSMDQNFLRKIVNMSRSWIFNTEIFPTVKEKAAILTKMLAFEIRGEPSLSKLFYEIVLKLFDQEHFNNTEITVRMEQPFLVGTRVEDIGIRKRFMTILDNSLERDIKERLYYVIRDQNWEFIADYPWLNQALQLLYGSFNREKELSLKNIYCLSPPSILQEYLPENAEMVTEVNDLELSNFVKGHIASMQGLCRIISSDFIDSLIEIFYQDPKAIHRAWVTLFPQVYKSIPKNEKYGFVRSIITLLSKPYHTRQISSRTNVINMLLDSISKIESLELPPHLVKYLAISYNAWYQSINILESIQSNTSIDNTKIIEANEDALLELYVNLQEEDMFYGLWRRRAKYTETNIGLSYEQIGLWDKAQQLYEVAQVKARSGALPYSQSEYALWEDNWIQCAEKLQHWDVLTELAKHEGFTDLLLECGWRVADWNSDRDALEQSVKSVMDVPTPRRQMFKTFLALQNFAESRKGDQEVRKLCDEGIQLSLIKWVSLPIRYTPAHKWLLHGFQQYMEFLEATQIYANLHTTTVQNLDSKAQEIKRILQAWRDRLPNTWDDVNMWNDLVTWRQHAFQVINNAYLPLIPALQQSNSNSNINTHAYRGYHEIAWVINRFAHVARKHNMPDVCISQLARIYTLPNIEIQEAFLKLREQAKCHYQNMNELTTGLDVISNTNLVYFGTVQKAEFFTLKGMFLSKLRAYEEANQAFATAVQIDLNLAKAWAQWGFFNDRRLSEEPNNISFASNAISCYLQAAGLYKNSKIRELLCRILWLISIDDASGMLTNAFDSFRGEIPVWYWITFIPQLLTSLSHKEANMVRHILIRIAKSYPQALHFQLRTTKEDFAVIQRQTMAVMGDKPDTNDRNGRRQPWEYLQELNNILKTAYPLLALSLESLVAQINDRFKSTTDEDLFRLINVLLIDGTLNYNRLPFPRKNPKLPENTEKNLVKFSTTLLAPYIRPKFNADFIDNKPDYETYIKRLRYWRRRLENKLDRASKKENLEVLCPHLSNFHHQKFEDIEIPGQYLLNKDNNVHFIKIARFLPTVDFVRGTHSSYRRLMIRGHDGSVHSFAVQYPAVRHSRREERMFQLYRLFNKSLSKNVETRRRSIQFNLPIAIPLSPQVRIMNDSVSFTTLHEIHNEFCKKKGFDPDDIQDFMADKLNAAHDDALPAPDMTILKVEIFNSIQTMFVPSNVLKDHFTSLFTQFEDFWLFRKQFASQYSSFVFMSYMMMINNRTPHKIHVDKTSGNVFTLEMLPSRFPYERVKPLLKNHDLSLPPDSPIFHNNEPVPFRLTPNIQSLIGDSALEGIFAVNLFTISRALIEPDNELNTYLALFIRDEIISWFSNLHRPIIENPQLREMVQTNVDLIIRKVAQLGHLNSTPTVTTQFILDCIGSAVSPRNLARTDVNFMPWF

binding result [1]: binds
B1: Taf12 (natural protein, S. cerevisiae (endogenous), UniProt Q03761 1-539, looked up)
chain: MSSNPENSGVNANNNTGTGNADAITGAQQNMVLQPRQLQEMAAKFRTLLTEARNVGETTPRGKELMFQAAKIKQVYDALTLNRRRQQAAQAYNNTSNSNSSNPASIPTENVPNSSQQQQQQQQQTRNNSNKFSNMIKQVLTPEENQEYEKLWQNFQVRHTSIKEKETYLKQNIDRLEQEINKQTDEGPKQQLQEKKIELLNDWKVLKIEYTKLFNNYQNSKKTFYVECARHNPALHKFLQESTQQQRVQQQRVQQQQQQQQQQQQQQQQQQQQQQQRQGQNQRKISSSNSTEIPSVTGPDALKSQQQQQNTITATNNPRGNVNTSQTEQSKAKVTNVNATASMLNNISSSKSAIFKQTEPAIPISENISTKTPAPVAYRSNRPTITGGSAMNASALNTPATTKLPPYEMDTQRVMSKRKLRELVKTVGIDEGDGETVIDGDVEELLLDLADDFVTNVTAFSCRLAKHRKSDNLEARDIQLHLERNWNIRIPGYSADEIRSTRKWNPSQNYNQKLQSITSDKVAAAKNNGNNVASLNTKK

binding result [1]: binds
B2: Ada1 (natural protein, S. cerevisiae (endogenous), UniProt Q12060 1-488, looked up)
chain: MSAIQSPAPKPLQPTYPAASPASTNAYMKPGLIGSPAVSNHTEPNNGNNETAEPQGPNQRIDLGAMIEELTSLLGKESWTKYAQIISLFILGKLSRKELSNELELVFSPSAASLEKSNTNHHHSLVRLHNQLLLGIFANSLRENPLGRNGNESSWGFGNGSNNPNNKLKRINKHNSQIEVYKKIVMSLPLNDRNRLKMITKEAGKRGFIFCSVFQARLNNIPKIPIVTNPESLKRVKSNNLKTPLEWSQDIMNGFNVPLASESHSLPDTDSFYLRMVGIAREHGLVGTVDARCVELISLALDQYLKNIIEFTIDTVRYRRKKYSDYYDLNESGLYKSVSEMAADKRDAKIKQLDDDKNEDECADEAKSINNGNNSSKDDIGDISMSSITKAGEAVNEELHENRTISLTNEDIYDSLSIFPNLVEPSGSYYALTNLGLVNDDELVDMKSNIDDLPDFLNEKPTFTPLDERNVGTRHELNWLIKGILTED

Continued, binder first:

B3: 75-mer ssDNA, HIS4 promoter (ssDNA)
DNA: GCAGGAGGACGTAGGGTAGGACTATGAACAGTAGTATACTGTGTATATAATAGATATGGAACGTTATATTCACCT
Kd [2]: 15 ± 11 nM

B4: 75-mer dsDNA, HIS4 TATA-box promoter (dsDNA)
DNA 1: B3 DNA
DNA 2: AGGTGAATATAACGTTCCATATCTATTATATACACAGTATACTACTGTTCATAGTCCTACCCTACGTCCTCCTGC
binding result [3]: binds
